Data published in patent publication US20220242962A1 (APTEVO RESEARCH AND DEVELOPMENT, published 2022).
Positions count from the first letter of the chain named. In names and notes the source's numbering stands. One block for each binder: values may come before it.

Legend:
Human 4-1BB ECD-AFH [1] = molecular target: T1, Human 4-1BB ECD-AFH (human); assay: SPR (Biacore 8K), construct captured, monovalent ECD
T1 construct: entry includes the tags; also called FOB003; HUMAN CD137 ECD-AVI-FLAG-HIS
Procedure: (§1) Mouse anti-human IgG (GE, BR-1008-39) at 25 μg/ml in 10 mM sodium acetate pH 5.0 was immobilized at a density of ˜10,000 response units (RU) onto each flow cell of a CM5 research-grade sensor chip (GE) by standard amine coupling chemistry. Each binding protein at approximately 100 nM in HBS-EP+ with 0.2% BSA buffer was captured in a flow cell with the immobilized anti-human IgG at a flow rate of 10 μL/min for 20 seconds, leaving one flow cell surface unmodified as the reference. Using a single-cycle kinetics mode, five different concentrations of ECD were sequentially injected through each flow cell at 30 μL/min for 300 seconds followed by a 600 second dissociation period. Regeneration was achieved by injection of 3 M MgCl₂ at a flow rate of 30 μL/min for 30 seconds followed by HBS-EP+ with 0.2% BSA buffer stabilization for 1 min.
(§2) Sensorgrams obtained from kinetic SPR measurements were analyzed by the double subtraction method. The signal from the reference flow cell was subtracted from the analyte binding response obtained from flow cells with immobilized or captured ligands. Buffer reference responses were then averaged from multiple injections. The averaged buffer reference responses were then subtracted from analyte binding responses, and the final double-referenced data were analyzed with Biacore T200 Evaluation software (2.0, GE), globally fitting data to derive kinetic parameters. All sensorgrams were fitted using a simple one-to-one binding model.
(§3) Using the BIACORE 8K SPR system, the affinity of these constructs for human and cyno 4-1BB, and human and cyno OX40 ECD, were determined using the methods described above. Monovalent binding affinity was determined by capturing the ADAPTIR™ bispecific construct on the chip and injecting monovalent ECD of the target at multiple concentrations.

Human OX40 ECD-AFH [2] = molecular target: T2, Human OX40 ECD-AFH (human); assay: as above
T2 construct: ECD'; entry includes the C-terminal tags; also called OXF003; Human OX40 ECD-avi-flag-his
T2 chain: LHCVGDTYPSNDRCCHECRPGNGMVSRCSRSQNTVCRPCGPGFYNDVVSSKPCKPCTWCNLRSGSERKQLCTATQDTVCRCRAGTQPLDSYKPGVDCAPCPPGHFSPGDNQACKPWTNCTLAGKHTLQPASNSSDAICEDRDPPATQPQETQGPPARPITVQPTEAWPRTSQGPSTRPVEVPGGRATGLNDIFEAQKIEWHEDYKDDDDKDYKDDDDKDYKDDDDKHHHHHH
Procedure: as §1, §2, §3

Cyno OX40-AFH = molecular target: T3, Cyno OX40-AFH (cynomolgus monkey); assay: as above
T3 construct: entry includes the tags; also called OXF005; cyno OX40 ECD
T3 chain: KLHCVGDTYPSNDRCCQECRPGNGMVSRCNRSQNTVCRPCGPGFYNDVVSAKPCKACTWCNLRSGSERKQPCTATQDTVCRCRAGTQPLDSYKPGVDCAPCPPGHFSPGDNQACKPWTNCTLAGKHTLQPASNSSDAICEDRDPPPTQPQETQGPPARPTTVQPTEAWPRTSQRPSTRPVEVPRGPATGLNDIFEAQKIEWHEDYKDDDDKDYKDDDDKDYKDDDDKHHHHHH
Procedure: as §1, §2, §3

Cyno 4-1BB ECD-AFH = molecular target: T4, Cyno 4-1BB ECD-AFH (cynomolgus monkey); assay: as above
T4 construct: entry includes the tags; also called FOB004; Cyno CD137 ECD-avi-flag-his
T4 chain: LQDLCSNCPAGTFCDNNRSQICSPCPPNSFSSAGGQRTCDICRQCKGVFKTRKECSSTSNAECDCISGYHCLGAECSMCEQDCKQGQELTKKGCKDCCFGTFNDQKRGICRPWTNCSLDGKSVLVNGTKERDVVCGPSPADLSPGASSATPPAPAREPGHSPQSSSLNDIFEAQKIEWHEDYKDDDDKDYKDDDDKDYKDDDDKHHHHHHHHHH
Procedure: as §1, §2, §3

Human 4-1BB ECD-AFH [3] = molecular target: T1, Human 4-1BB ECD-AFH; assay: SPR, construct captured, monomeric ECD as analyte
Procedure: as §1, §2
(§4) Protein was produced by transient expression, purified by ProA chromatography and prep SEC.
Target sequence in this assay (chain, as listed by the source limits assumed): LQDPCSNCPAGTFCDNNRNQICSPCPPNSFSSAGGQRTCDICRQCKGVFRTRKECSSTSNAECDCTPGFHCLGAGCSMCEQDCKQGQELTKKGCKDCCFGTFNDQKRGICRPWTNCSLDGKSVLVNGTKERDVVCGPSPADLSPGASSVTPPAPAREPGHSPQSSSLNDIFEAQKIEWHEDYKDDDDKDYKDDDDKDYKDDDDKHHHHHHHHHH

Human OX40 ECD-AFH [4] = molecular target: T2, Human OX40 ECD-AFH; assay: SPR, construct captured, monomeric ECD as analyte
Procedure: as §1, §2, §4

Full-length Human 4-1BB = molecular target: T5, Full-length Human 4-1BB (human, UniProt Q07011 24-255); assay: flow cytometry, Jurkat cells expressing human 4-1BB
T5 construct: also called FOB005; CD137
Procedure: (§5) FIGS. 12A-12D show the binding of anti-4-1BB x anti-OX40 constructs, with additional humanization in 4-1BB and altered orientations of binding domains, human (12A) or cynomolgus (12C) 4-1BB-expressing Jurkat cells or human (12B) or cynomolgus (12D) OX40-expressing CHOK1SV cells. Serial dilutions of ADAPTIR™ constructs were incubated with transfected cells and subsequently labelled with a fluorescently-conjugated goat-a-human Fc secondary antibody. […] (See Example 19.)
(§6) Binding studies were performed using the flow cytometry-based staining procedures described above.

Full-length Cyno OX40 = molecular target: T6, Full-length Cyno OX40 (cynomolgus monkey, UniProt P43489 29-277 (human entry)); assay: flow cytometry on CHOK1SV cells transfected with cynomolgus OX40, goat anti-human Fc secondary antibody, MFI (Mean)
T6 construct: on CHO-K1SV cells; also called OXF004; cynomolgus OX40
T6 chain: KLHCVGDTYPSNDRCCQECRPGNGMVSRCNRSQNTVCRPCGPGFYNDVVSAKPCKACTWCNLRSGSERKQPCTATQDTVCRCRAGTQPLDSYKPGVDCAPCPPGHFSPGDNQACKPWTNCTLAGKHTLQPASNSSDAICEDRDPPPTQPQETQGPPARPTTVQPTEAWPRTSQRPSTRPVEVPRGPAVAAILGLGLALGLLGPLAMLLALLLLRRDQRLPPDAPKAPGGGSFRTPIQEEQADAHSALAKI
Procedure: as §5, §6

Kd (Human 4-1BB ECD-AFH [1]): 17 nM
koff (Human 4-1BB ECD-AFH [1]): 0.0045 s⁻¹
kon (Human 4-1BB ECD-AFH [1]): 270000 M⁻¹ s⁻¹
Kd (Human OX40 ECD-AFH [2]): < 1 nM
koff (Human OX40 ECD-AFH [2]): 0.00038 s⁻¹
kon (Human OX40 ECD-AFH [2]): 930000 M⁻¹ s⁻¹
Kd (Cyno OX40-AFH): < 1 nM
koff (Cyno OX40-AFH): 0.00029 s⁻¹
kon (Cyno OX40-AFH): 1.1e+06 M⁻¹ s⁻¹
Kd (Cyno 4-1BB ECD-AFH): 81 nM
koff (Cyno 4-1BB ECD-AFH): 0.008 s⁻¹
kon (Cyno 4-1BB ECD-AFH): 99000 M⁻¹ s⁻¹
B1: FXX01111 (bispecific antibody)
chain: EVQLVQSGAEVKKPGASVKVSCKASGYTFTSYWMNWVRQAPGQGLEWMGNIYPSGGSTNYAQKFQGRVTMTVDTSTSTVYMELSSLRSEDTAVYYCASFSDGYYAYAMDYWGQGTLVTVSSGGGGSGGGGSGGGGSGGGGSEIVMTQSPATLSLSPGERATLSCRASQSVSSYLNWYQQKPGQAPRLLIYYASRRHTGIPARFSGSGSGTDFTLTISSLQPEDFAVYYCQQGYNLPYTFGQGTKVEIKEPKSSDKTHTCPPCPAPPAAAPSVFLFPPKPKDTLMISRTPEVTCVVVDVSHEDPEVKFNWYVDGVEVHNAKTKPREEQYNSTYRVVSVLTVLHQDWLNGKEYKCAVSNKALPAPIEKTISKAKGQPREPQVYTLPPSRDELTKNQVSLTCLVKGFYPSDIAVEWESNGQPENNYKTTPPVLDSDGSFFLYSKLTVDKSRWQQGNVFSCSVMHEALHNHYTQKSLSLSPGGGGSPSSYVLTQPPSVSVAPGQTARITCGGNNIGSKSVNWFQQKPGQAPVLVVYDDSGRPSGVPNRFSGSTSGNTATLTISRVEAGDEADYYCQVWDSSSDHVVFGGGTKLTVLGGGGSGGGGSGGGGSGGGGSQVQLVESGGGVVQPGRSLRLSCAASGFTLSYYGMHWVRQAPGKGLEWVAAISHDGSDKYYADSVKGRFTISRDNSKNTLYLQMNSLRAEDTAVYYCSNDQFDPWGQGTLVTVSSR
notes: ADAPTIR anti-4-1BB x anti-OX40, pI variant; PAA (del) Fc

Kd (Human 4-1BB ECD-AFH [1]): 18 nM
koff (Human 4-1BB ECD-AFH [1]): 0.0046 s⁻¹
kon (Human 4-1BB ECD-AFH [1]): 260000 M⁻¹ s⁻¹
Kd (Human OX40 ECD-AFH [2]): 0.3 nM
koff (Human OX40 ECD-AFH [2]): 0.00031 s⁻¹
kon (Human OX40 ECD-AFH [2]): 920000 M⁻¹ s⁻¹
Kd (Cyno OX40-AFH): 0.2 nM
koff (Cyno OX40-AFH): 0.00023 s⁻¹
kon (Cyno OX40-AFH): 1e+06 M⁻¹ s⁻¹
Kd (Cyno 4-1BB ECD-AFH): 79 nM
koff (Cyno 4-1BB ECD-AFH): 0.0075 s⁻¹
kon (Cyno 4-1BB ECD-AFH): 95000 M⁻¹ s⁻¹
B2: FXX01119 (bispecific antibody)
chain: B1 chain with Q500K, T690R
notes: as for B1

Kd (Human 4-1BB ECD-AFH [1]): 17 nM
koff (Human 4-1BB ECD-AFH [1]): 0.0046 s⁻¹
kon (Human 4-1BB ECD-AFH [1]): 270000 M⁻¹ s⁻¹
Kd (Human OX40 ECD-AFH [2]): < 1 nM
koff (Human OX40 ECD-AFH [2]): 0.00029 s⁻¹
kon (Human OX40 ECD-AFH [2]): 980000 M⁻¹ s⁻¹
Kd (Cyno OX40-AFH): < 1 nM
koff (Cyno OX40-AFH): 0.00027 s⁻¹
kon (Cyno OX40-AFH): 1.1e+06 M⁻¹ s⁻¹
Kd (Cyno 4-1BB ECD-AFH): 76 nM
koff (Cyno 4-1BB ECD-AFH): 0.0077 s⁻¹
kon (Cyno 4-1BB ECD-AFH): 100000 M⁻¹ s⁻¹
Kd (Human 4-1BB ECD-AFH [3]): 16 nM
koff (Human 4-1BB ECD-AFH [3]): 0.0046 s⁻¹
kon (Human 4-1BB ECD-AFH [3]): 290000 M⁻¹ s⁻¹
Kd (Human OX40 ECD-AFH [4]): 0.6 nM
koff (Human OX40 ECD-AFH [4]): 0.00041 s⁻¹
kon (Human OX40 ECD-AFH [4]): 630000 M⁻¹ s⁻¹
EC50 (Full-length Human 4-1BB): 0.25 nM
max MFI (Full-length Human 4-1BB): 4850 MFI
EC50 (read off the curve) (Full-length Cyno OX40): ~0.8 nM
B3: FXX01101 (bispecific antibody)
chain: B1 chain with V541I, N543E, T690R
notes: ADAPTIR anti-4-1BB (HL) x anti-OX40 with T86R; PAA (del) Fc; also called FX01101
